Data on 3 molecules can be found in paper PMC10011503, “A novel compound targets the feline infectious peritonitis virus nucleocapsid protein and inhibits viral replication in cell culture” (The Journal of Biological Chemistry, 2023).

Series [1] has as its target T1, FCoV N (Feline infectious peritonitis virus (strain 79-1146), UniProt P25909). The series is described as follows: biolayer interferometry, inhibition of N binding to immobilized biotinylated vRNA […]' NCR.
The target in series [2] is T1, FCoV N. The series is described as follows: biolayer interferometry, His-tagged N immobilized on Ni-NTA biosensor. It is filed as binding. Conditions: read-out: Kd ± SD. From the text: biolayer interferometry, His-tagged N immobilized on Ni-NTA biosensor on FCoV N
Series [3] deals with T1, FCoV N. The experiment in a line: filter binding, Lineweaver-Burk secondary plot, N with radiolabeled vRNA […]' NCR.
In series [4] the target is T2, FCoV nucleocapsid protein N (Feline alphacoronavirus (FCoV/FIPV) …, UniProt P25909 1-377).
T2 sequence: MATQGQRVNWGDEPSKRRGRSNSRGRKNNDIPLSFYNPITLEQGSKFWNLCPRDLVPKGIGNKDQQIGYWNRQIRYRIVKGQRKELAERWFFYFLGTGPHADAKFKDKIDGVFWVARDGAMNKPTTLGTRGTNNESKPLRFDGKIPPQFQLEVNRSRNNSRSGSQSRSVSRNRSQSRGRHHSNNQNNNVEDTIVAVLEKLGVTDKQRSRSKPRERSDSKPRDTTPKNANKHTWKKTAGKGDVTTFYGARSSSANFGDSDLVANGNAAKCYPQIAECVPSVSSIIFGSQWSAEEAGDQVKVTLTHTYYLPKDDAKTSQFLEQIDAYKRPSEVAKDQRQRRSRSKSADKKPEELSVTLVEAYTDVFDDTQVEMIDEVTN
The series is described as follows: filter binding; 160 mM NaCl; Filter binding: 40 mM Tris-HCl pH 7.4, 80 mM NaCl (160, 320 in series), 20 mM KCl, 1 mM DTT, room temperature, 30-45 min; BLI: 20 mM Tris-HCl pH 7.4, 80 mM NaCl, 20 mM KCl, 1 mM DTT, room temperature. Conditions: protein: recombinant; tags: C-terminal His (pET-30a(+), NdeI/HindIII); chain copies: 2; label: [alpha-32P]GTP, internal.

Series [5] addresses T2, FCoV nucleocapsid protein N. The series is described as follows: filter binding; 320 mM NaCl; Filter binding: 40 mM Tris-HCl pH 7.4, 80 mM NaCl (160, 320 in series), 20 mM KCl, 1 mM DTT, room temperature, 30-45 min; BLI: 20 mM Tris-HCl pH 7.4, 80 mM NaCl, 20 mM KCl, 1 mM DTT, room temperature. Conditions: protein: recombinant; tags: C-terminal His (pET-30a(+), NdeI/HindIII); chain copies: 2; label: [alpha-32P]GTP, internal.

For series [6] the target is unchanged. The experiment in a line: filter binding; 80 mM NaCl; Filter binding: 40 mM Tris-HCl pH 7.4, 80 mM NaCl (160, 320 in series), 20 mM KCl, 1 mM DTT, room temperature, 30-45 min; BLI: 20 mM Tris-HCl pH 7.4, 80 mM NaCl, 20 mM KCl, 1 mM DTT, room temperature. Conditions: protein: recombinant; tags: C-terminal His (pET-30a(+), NdeI/HindIII); chain copies: 2; label: [alpha-32P]GTP, internal.

Series [7] has the same target. The series is described as follows: BLI; 80 mM NaCl; kass 3.195e5 M-1s-1, kdis 5.931e-3 s-1; Filter binding: 40 mM Tris-HCl pH 7.4, 80 mM NaCl (160, 320 in series), 20 mM KCl, 1 mM DTT, room temperature, 30-45 min; BLI: 20 mM Tris-HCl pH 7.4, 80 mM NaCl, 20 mM KCl, 1 mM DTT, room temperature. Conditions: protein: recombinant; tags: C-terminal His (pET-30a(+), NdeI/HindIII); chain copies: 2. Background: BLI is a label-free optical method that tracks binding on a fibre tip over time.

By IC50 is commonly meant the concentration that gives 50% inhibition. Read a high IC50 as a need for much substance. One may read the Kd as the concentration at which binding is half-saturated. As usually defined, the Ki is a dissociation constant, usually derived from enzyme kinetics or from competition with a known ligand. Regarding `O=C(O)c1cccc2c1NC(c1cccc(Br)c1)C1CC=CC21` (stereo not shown) [K31, 4-(3-Bromophenyl)-3a,4,5,9b-tetrahydro-3H-cycloppenta [c] quinoline-6-carboxylix acid], the concentration for half-maximal inhibition (IC50) in series [1] is about 850 nM. Besides, in series [2], the Kd was 350 ± 17 nM. The same molecule had an inhibitory constant (Ki) in series [3] of about 246 nM.

As to ACUUUUAAAGUAAAGUGAGUGUAGCGUGGCUAUAAC (ssRNA) [vRNA 5' NCR (36 nt, radiolabeled)], the Kd in series [4] was determined as 30.7 ± 7.5 nM; in series [5], 35 ± 7 nM; in series [6], 29 ± 1.6 nM.

As to ACUUUUAAAGUAAAGUGAGUGUAGCGUGGCUAUAAC (ssRNA) [vRNA 5' NCR (36 nt, biotinylated)], the Kd in series [7] is 18 ± 1.8 nM.
